In paper PMC2811023 (Nucleic Acids Research, 2009):

T1: Staphylococcus aureus GatA (subunit A of the heterotrimeric tRNA-dependent amidotransferase GatCAB) (Staphylococcus aureus, UniProt P63488 1-485)
T1 sequence: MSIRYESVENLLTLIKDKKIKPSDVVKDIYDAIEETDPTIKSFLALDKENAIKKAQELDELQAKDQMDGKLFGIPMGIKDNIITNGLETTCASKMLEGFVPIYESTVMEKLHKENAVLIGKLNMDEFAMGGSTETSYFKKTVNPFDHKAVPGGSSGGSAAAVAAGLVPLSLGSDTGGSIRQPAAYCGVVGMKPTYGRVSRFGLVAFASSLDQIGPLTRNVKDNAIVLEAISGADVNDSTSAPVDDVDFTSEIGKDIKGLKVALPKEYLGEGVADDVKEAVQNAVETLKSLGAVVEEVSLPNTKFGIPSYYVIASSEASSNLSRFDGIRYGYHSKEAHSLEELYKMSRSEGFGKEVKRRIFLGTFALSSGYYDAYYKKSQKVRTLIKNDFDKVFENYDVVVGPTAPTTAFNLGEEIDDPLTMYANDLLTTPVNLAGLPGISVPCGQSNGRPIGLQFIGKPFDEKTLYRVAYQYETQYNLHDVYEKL

B1: Staphylococcus aureus GatC (subunit C of the heterotrimeric tRNA-dependent amidotransferase GatCAB) (natural protein)
chain: MTKVTREEVEHIANLARLQISPEETEEMANTLESILDFAKQNDSADTEGVEPTYHVLDLQNVLREDKAIKGIPQELALKNAKETEDGQFKVPTIMNEEDA
B2: Staphylococcus aureus GatB (subunit B of the heterotrimeric tRNA-dependent amidotransferase GatCAB) (enzyme)
chain: MHFETVIGLEVHVELKTDSKMFSPSPAHFGAEPNSNTNVIDLAYPGVLPVVNKRAVDWAMRAAMALNMEIATESKFDRKNYFYPDNPKAYQISQFDQPIGENGYIDIEVDGETKRIGITRLHMEEDAGKSTHKGEYSLVDLNRQGTPLIEIVSEPDIRSPKEAYAYLEKLRSIIQYTGVSDVKMEEGSLRCDANISLRPYGQEKFGTKAELKNLNSFNYVRKGLEYEEKRQEEELLNGGEIGQETRRFDESTGKTILMRVKEGSDDYRYFPEPDIVPLYIDDAWKERVRQTIPELPDERKAKYVNELGLPAYDAHVLTLTKEMSDFFESTIEHGADVKLTSNWLMGGVNEYLNKNQVELLDTKLTPENLAGMIKLIEDGTMSSKIAKKVFPELAAKGGNAKQIMEDNGLVQISDEATLLKFVNEALDNNEQSVEDYKNGKGKAMGFLVGQIMKASKGQANPQLVNQLLKQELDKR

Key:
[1] = target: T1, Staphylococcus aureus GatA (subunit A …); assay: crystal structure
[2] = target: B2; assay: crystal structure

Row | Binder | binding result [1] | binding result [2]
1 | B1 | binds | binds
2 | B2 | binds | 
